According to a protein production outcome set (Wang et al. 2014):

Experiment: label from the status in PepcDB records

Protein production, failed:
MSLVGKTLSGRYRVVRPLARGALARVYLAFDPFGTPYALKLFPPKARPRRDRELWVGRRLAHPNLNPVLEALDLEEGPALLLAYAPGEELGRWMGKSPAFSQAMRVFHQLLLALAHMHEKGLVHRDVKPENILVNAGEARLLDFDLSGPAQERFQKPLLLGTPAYLAPELLRGLPSGPEADVYAAGIILYWMLTGEHPFADPSGRVSLDPDRGPHPPVAGLGEEAALYLERLLAPDPKARFPTAQEALKAFPF
MSLVVFLIAYVIRRRLDRADHLAGDEVWRNWFHRWGRVEAGQERSVWRGALLVVLPSLALAGAWALSSEAGYRYALYPLELVLMVVLMGAPGWRKVLRAYSDAWRRGDMQAAWHHVQERLPASERGAALSPEAMHLSVSRALMVSVFERFFLVVFWYAVGGIALAFLARGLVALAGQWPQAAARERYQRAARLIGWIPSRLLSCTFGLAGDLAGWSREIRKVFPGFGKKTADVLMISANGSLTGYALDPARFSELHPEEWPDFGGRSLSAIRDLLNRSMLVWICAFALLVIAGMA
MSMATPSSAQRFNDRVAAYVRYRPSYPPQLLRWLHGELGVTPATAVADIGAGTGISSRLFLEAGYAVTAVEPNQAMREAALQWLAEFPKFQAIDGTAEATGLADASVGLVSAAQAFHWFDMQAVRDEWARILQPGGLAVVYWNSRELDSTAFLRGYEQLLLDYGTDYSAVAERYQDDATMQAWFGEGFRAMARFPNVQRLDFESLRGRLLSSSYAPLAHDPRHAPMLAALRTLFDAYAHDGLIDFQYQTRVFAGRLN
MSMNQFRTMEEEKQDGGELFHTIEVAKVDRNNVSQPPPAATAALLEVPGDELNLIPPLNFSMVDNGIFRSGFPDSANFSFIKTLGLRSIISLCPEPYPENNMQFLKSNGISLFQFGIEGSKSKEPFVDILDQKIREALKVLLDEKNHPLLIHCKRGKHRTGCLVGCMRKLQKWCITSILDEYKRFAAAKARVSDQRFLESFDVSGLKHTPMSFSCSNR
MSMVGAIILSIIIGIAAFFIHPLLYIGLALMGLIGWQRVRREREHFHTRVLRIRADYVVPFLPGLIAGSLLSLVTIVIGLTVSIDWLWLLLIVYLLTIVTMNIRWISPAYVGAFMIGVVLLAPFVTTGWPWFDERLQSASQIPVLVIMYLTVLLLSAEGMLIAKRGGSFSSPVVVRSKRGKWVGFHRVKRLWLLPVVLFIPEGAIPTFSFWPILTVAGVSLQPLVVPFLIGTDFKIWSSLPKVVSRKVGNQVLGLALTLALIVCITWYVPWLSVLFAIVAIVGREGIHLMAKIKDRSSTSLFTNQGTGCKVLGILPGSPAEKMGIKIGETILRVNGKMVNNEYSFYEALQENSAFCRLEVIDKAGEVRFAQGALYDGEHHQLGVLLVKEDRELQDSVI
MSNAVSAENEGPGAIPGLLHLSGPCVYVAGSQGVSMTQTMPIGAVIAPVTPLQQNCTIVWCAKTLKAAVIDPGGEVDRLLKAIADKGLTLEKIWITHGHMDHAGGAAELKARTGVPIEGPHKDDQFWIDRIQDSGEMYGMPEARIFVTDRWLDDGDTVTLGETEFEVFHCPGHTPGHVVFFHRETKFAQVGDVLFQGSIGRTDFPMGNHQDLIDSITQKLWPLGEDVRFVPGHGPMSTFGAERRGNPFVGDRVVAAMKAQGAGFTIPKNNSPG
MSNDQSAMNELHWLIDMVQTIEVGLVVLDRDYNIQLWNGFMENHSGVSPNSIKGQNLFSRFPDLPATWLKQKMESVFMLKNRAFISWEQRPYVFQFKNYRPITGRADFMYQNVTLLPLASLTGKITHISVIVYDVTDIAVNKLQLKAANEQLERLSQTDGLTQLHNRRHWQQCLEHEYDLYARYSGIASLVMIDIDHFKNINDTYGHLAGDKVIQHIAHILSHSLRETDCAGRYGGEEFAVVMPSTCGADALNFTERLREKIASSTVVYEGLKIKVTVSLGVCELGKHISSSSSWISCSDKALYEAKQKGRNCTVLHCAPTSAE
MSNEISLCMIVKNEEKYLFQCLDSVKDIVDEIIIVDTGSTDKTVEIAKKFGAEIHYFMWNNSFSDARNESLKYATKDWIFIMDGDDEFSKDDKEKFKELVKNNLKEDCLYYFETLSYCGEFVDSSNISVNLNPRLFKNNYGYKYEGIVHNQLINTEKEIKNVIYNIRIYHYGYLEDVSKKKNKRGRNIPLLKKQLKENPDDRFAHFNIGNEYYAIGDLQKALTHYCEAYKDFNPSSGFGFVLITRLIVTNFGIGKHEKAIEFADIGLEYYPNATDIYFLKALIYEATRRPTLAIKALKRCIEMGEPPSNLKLYYGTWSFKALYELVNIYMGLKDYEEAYKYCIETIKAKNDFVNPVYVIGHILKERKTPIEEFKVELEKLFSDYPKAYFFIANILYDEGYFNEALEYTDKCEKEGLNSDAILDLKLKAMIRAQKFNECAEANYFAKESVFYFNASMYKVLSLVLIGKFKEALKDLEIFKDGKLKRQDKKELEVYSQFVKLFMNEETKVLSEDKEDKEYTGFILDICDILLSNKLYDEFEKALNLFNLISDENVLLNLSKLYYKHGIESMAKKEAIRSIKEFEVFDNEILDILR

Protein production, not failed:
MSLTEEFVNKEDALKNYNAKEFRTPDGYTSDMILTTVKELNGKPTLHILLIKRSLTNAEGKPNMEGGKWAVPGGFVDENESAEQAAERELEEETSLTDIPLIPFGVFDKPGRDPRGWIISRAFYAIVPPEALEKRAAGDDAAEIGLFPMTEALELPLAFDHLDMLKKAFSAITEEFLLTEGHHHHHH
MSLTESARIDGVSLYEIVIPMKIPFQISSGTCYTRRSLVVEIREGDLFGYGESAPFEEPFYLGETLETTKVILKNHLLPMILGKEPLSIEEFNHLIKNGIRGNHFARCGVENAYWDLIAKKNKISLKAMIEKKMKNLGVKQEYLASNNYIESGAALGIPEDGRIETLIHQVEESLQEGYRRIKIKIKPGWDVEPLQETRRAVGDHFPLWTDANSSFELDQWETFKAMDAAKCLFHEQPLHYEALLDLKELGERIETPICLDESLISSRVAEFVAKLGISNIWNIKIQRVGGLLEAIKIYKIATDNGIKLWGGTMPESGLGARFLISLASFRGFVFPADVAASEKWYGKGNDLVENTMTDGKIYVPDEPGASFDMTLSHLEALGKKIWESQRGEGHHHHHH
MSLTGFWHDDFNNATPNDICVAIRSEAADAGIAQAIMQQLEEALKQLAQGSGSSQALTQVRRWDSACQKLPDANLALISVAGEYAAELANQALDRNLNVMMFSDNVTLEDEIQLKTRAREKGLLVMGPDCGTSMIAGTPLAFANVMPEGNIGVIGASGTGIQELCSQIALAGEGITHAIGLGGRDLSREVGGISALTALEMLSADEKSEVLAFVSKPPAEAVRLKIVNAMKATGKPTVALFLGYTPAVARDENVWFASSLDEAARLACLLSRVTARRNAIAPVSSGFICGLYTGGTLAAEAAGLLAGHLGVEADDTHQHGMMLDADSHQIIDLGDDFYTVGRPHPMIDPTLRNQLIADLGAKPQVRVLLLDVVIGFGATADPAASLVSAWQKACAARLDNQPLYAIATVTGTERDPQCRSQQIATLEDAGIAVVSSLPEATLLAAALIHPLSPAAQQHTPSLLENVAVINIGLRSFALELQSASKPVVHYQWSPVAGGNKKLARLLERLQGHPHHH
MSLTKLYYEDQYIKEFKGEIIEVKEIDGKFHVLLDQTAFFPGGGGQMGDLGLIDGIKVLDVYEEEGKVYHVLEKEPKKLKNLQCELDWERRFDGMQQHLGQHLLSGCFYDLFGANTCGFHLGKEISTVDIVGFLDEKTIREAEKEANRLIFENLEVKSYAPSKKELKKVKTRRALPKTDEEIRIVEIVGLDLNACCGVHPRNTRDLQVIKIRRWEKHKNATRIEYVAGNRAVSEGHHHHHH
MSLTLRVVPELYCFDINVSQSFFVDVLGFEVKYERPDEEFVYLTLDGVDVMLEGIAGKSRKWLSGDLEFPLGSGVNFQWDVIDIEPLYQRVNESAADSIYLALESKSYQCGDSIATQKQFMVQTPDGYLFRFCQDIHEGHHHHHH
MSLTPTVMVVDESRITFLAVKNALEKDGFNVIWAKNEQEAFTFLRREKIDLVFVDVFEGEESLNLIRRIREEFPDTKVAVLSAYVDKDLIINSVKAGAVDYILKPFRLDYLLERVKKIISSTPRVTVSLRKNIEEGHHHHHH
MSLTPYEPFRHLDQMRREFDRFFPDFPIDLPNRHLTLSPKMDVHETDHEVILECDIPGLESKEDLQIDVEPRSVRIEGRIKRSKEVHDERFYRREREIGHFRRVVPLPAEVAEDDIRAAYRNGVLEVRMRKRLDDRRRTIDVEFHLEHHHHHH
MSLTRTQPVELVTMVMVTDPETQRVLVEDKVNVPWKAGHSFPGGHVEVGEPCATAAIREVFEETGLRLSGVTFCGTCEWFDDDRQHRKLGLLYRASNFTGTLKASAEGQLSWLPITALTRENSAASLPEFLQVFTGTASTLVSDSWNGNLRIDEGHHHHHH
MSLTTMLEVAKRAGVSKATVSRVLSGNGYVSQETKDRVFQAVEESGYRPNLLARNLSAKSTQTLGLVVTNTLYHGIYFSELLFHAARMAEEKGRQLLLADGKHSAEEERQAIQYLLDLRCDAIMIYPRFLSVDEIDDIIDAHSQPIMVLNRRLRKNSSHSVWCDHKQTSFNAVAELINAGHQEIAFLTGSMDSPTSIERLAGYKDALAQHGIALNEKLIANGKWTPASGAEGVEMLLERGAKFSALVASNDDMAIGAMKALHERGVAVPEQVSVIGFDDIAIAPYTVPALSSVKIPVTEMIQEIIGRLIFMLDGGDFSPPKTFSGKLIRRDSLIAPSREGHHHHHH
MSLTTSHFIPFPREMVWDWHTRKGAVARLTPPFIPLNPITQAERLADGTTIFSLPAGLKWVARHDLSGFLNGSRFTDVCLTAPVKALANWRHVHNFVDQDGGTLITDSVSTRLPASTLTGMFAYRQTQLIEDLKFLSRTSTLFDGSPLTVAITGSRGLVGRALTAQLQTGGHEVIQLVRKEPKPGKRFWDPLNPASDLLDGADVLVHLAGEPIFGRFNDSHKEAIRESRVLPTKFLAELVAESTQCTTMISASAVGFYGHDRGDEILTEESESGDDFLAEVCRDWEHATAPASDAGKRVAFIRTGVALSGRGGMLPLLKTLFSTGLGGKFGDGTSWFSWIAIDDLTDIYYRAIVDAQISGPINAVAPNPVSNADMTKILATSMHRPAFIQIPSLGPKILLGSQGAEELALASQRTAPAALENLSHTFRYTDIGAAIAHELGYEQLADFAQQQEIEAERKQERAELKAAKKIAKKAPVLEESPTNLEDPEEVEQSILSSILNFRRKRNDLEHHHHHH
MSLVLMAQATKPEQLQQLQTTYPDWTFKDAAAVTAADYDQIEVMYGNHPLLKTILARPTNQLKFVQVISAGVDYLPLKALQAAGVVVANTSGIHADAISESVLAAMLSVVRGYHAAWLNQRGARQWALPMTTSTLTGQQLLIYGTGQIGQSLAAKASALGMHVIGVNTTGHPADHFHETVAFTATADALATANFIVNALPLTPTTHHLFSTELFQQTKQQPMLINIGRGPAVDTTALMTALDHHQLSMAALDVTEPEPLPTDHPLWQRDDVLITPHISGQIAHFRATVFPIFAANFAQFVKDGTLVRNQVDLNRGYEGHHHHHH
MSLVMSGEKMKVIIVEDEFLAQQELSWLINTHSQMEIVGSFDDGLDVLKFLQHNKVDAIFLDINIPSLDGVLLAQNISQFAHKPFIVFITAWKEHAVEAFELEAFDYILKPYQESRIINMLQKLTTAWEQQNNAAEGHHHHHH
MSLYEWLNALPKAELHLHLEGTLEPELLFALAERNRIALPWNDVETLRKAYAFNNLQEFLDLYYAGADVLRTEQDFYDLTWAYLQKCKAQNVVHVEPFFDPQTHTDRGIPFEVVLAGIRAALRDGEKLLGIRHGLILSFLRHLSEEQAQKTLDQALPFRDAFIAVGLDSSEVGHPPSKFQRVFDRARSEGFLTVAHAGEEGPPEYIWEALDLLKVERIDHGVRAFEDERLMRRLIDEQIPLTVCPLSNTKLCVFDDMSQHTILDMLERGVKVTVNSDDPAYFGGYVTENFHALQQSLGMTEEQARRLAQNSLDARLVKEGHHHHHH
